Consider seven molecules from patent publication US20210301026A1 (ULTRAHUMAN TWELVE, published 2021).

Usually Kd stands for the concentration at which binding is half-saturated. Usually koff stands for the first-order rate constant of dissociation. Usually kon stands for the rate constant with which the complex forms. What is called EC50 (read off the curve) is the concentration that produces a half-maximal response. What is called IC50 is the concentration needed to halve the response being measured.

Where a chain is given by its changes, count along the chain named. Names may count otherwise. Like-named read-outs stand apart in the source and are kept apart here. Some results are limits rather than exact numbers.

The target of test [1] is T1, monomeric human CSF1R ectodomain protein (human, UniProt P07333 20-517).
T1 construct: also called biotinylated monomeric human CSF1R
The experiment in a line: SPR Biacore, IgG captured, monomeric CSF1R analyte. On the procedure:
(§1) Affinity (KD) of purified IgGs was determined via SPR with antigen in-solution on a Biacore 3000 (GE). A mouse anti-human antibody (CH1 specific) was immobilized on a CM5 Sensor Chip to a level of 2000 RU in acetate buffer at pH 4.5 using amine coupling following the Wizard instructions for two channels. One channel was used for background signal correction. The standard running buffer HBS-EP pH 7.4 was used. Regeneration was performed with a single injection of 10 μl of 10 mM Glycine at pH 1.5 at 20 μl/minute. IgG samples were injected for 2 minutes at 50 nM at 30 μl/min followed by and off-rate of 60 seconds. The monomeric ectodomain protein (human CSF1R or cynomolgus monkey CSF1R) was injected in two fold serial dilutions from 100 nM down to 3.1 nM, for 2 minutes at 30 μl/min followed by an off-rate of 300 seconds. The obtained sensorgrams were analysed using the Biacore 3000 evaluation (BIAevaluation) software. The KD was calculated by simultaneous fitting of the association and dissociation phases to a 1:1 Langmuir binding model.
(§2) Biacore analyses of binding affinity were performed for all IgGs to solution-phase, monomeric human and cyno CSF1R proteins (Table 6). […] Affinity differentials of less than 3-fold between human and cyno target orthologs are highly beneficial in pre-clinical drug development analyses as they allow more accurate design and interpretation of e.g. monkey safety, PK and PD modelling experiments.
(In SPR one partner is held on a chip, and binding of the other changes the refractive index at the surface.)

The target of test [2] is T2, monomeric cynomolgus monkey CSF1R ectodomain protein (cynomolgus monkey, UniProt P07333 20-517 (human entry)).
T2 construct: also called monomeric cyno CSF1R; Cyno CSF1R
T2 chain: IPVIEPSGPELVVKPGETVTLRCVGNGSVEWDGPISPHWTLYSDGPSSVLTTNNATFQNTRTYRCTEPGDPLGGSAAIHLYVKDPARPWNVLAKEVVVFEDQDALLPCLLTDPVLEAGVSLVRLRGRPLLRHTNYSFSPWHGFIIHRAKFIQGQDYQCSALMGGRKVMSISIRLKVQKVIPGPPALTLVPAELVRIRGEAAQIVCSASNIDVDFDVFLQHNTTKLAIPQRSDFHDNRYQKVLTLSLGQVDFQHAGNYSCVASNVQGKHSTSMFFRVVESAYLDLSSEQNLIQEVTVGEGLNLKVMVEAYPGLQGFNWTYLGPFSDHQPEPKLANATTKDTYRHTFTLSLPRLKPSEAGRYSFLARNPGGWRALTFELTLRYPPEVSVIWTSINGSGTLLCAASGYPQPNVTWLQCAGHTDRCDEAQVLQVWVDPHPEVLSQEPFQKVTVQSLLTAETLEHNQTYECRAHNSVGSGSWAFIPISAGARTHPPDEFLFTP
Nature of the test: SPR Biacore, IgG captured, monomeric CSF1R analyte. On the procedure: as §1, §2

The target of test [3] is T3, human CSF1R, membrane-presented on cells (human, UniProt P07333 20-972).
T3 construct: HEK-293 cells transiently transfected with human CSF1R (flow cytometry); the native receptor on primary human monocytes in the proliferation assay; also called human CSF1R+ HEK-293 cells; CSF1R on primary human CD14+ monocytes
The experiment in a line: flow cytometry on HEK-293 cells expressing human CSF1R, MFI.

For test [4], the target named is T4, cynomolgus monkey CSF1R human Fc tagged recombinant protein (cynomolgus monkey, UniProt P07333 20-517 (human entry), limits assumed).
T4 construct: also called cyno CSF1R-Fc
T4 chain: T2 chain
The experiment in a line: direct titration ELISA on coated cyno CSF1R-Fc, IgG4(S228P) format, OD 450 nm. On the procedure:
(§3) Binding and cross-reactivity of the lead panel to the recombinant proteins was initially assessed by binding ELISA. The human CSF1R human Fc tagged recombinant protein and the cynomolgus monkey CSF1R human Fc tagged recombinant protein were coated to the surface of MaxiSorp™ flat-bottom 96 well plate at 1 μg/ml. The purified IgG samples were titrated in two fold serial dilutions starting from 500 nM to 0.008 nM and allowed to bind to the coated antigens. The Fabs were detected using mouse anti-c-myc antibody followed by donkey anti-mouse IgG conjugated to horseradish peroxidase. The IgGs were detected using the mouse anti-human IgG conjugated to horseradish peroxidase. Binding signals were visualized with 3,3′,5,5′-Tetramethylbenzidine Substrate Solution (TMB) and the absorbance measured at 450 nm.

Test [5] concerns the target T5, human CSF1R human Fc tagged recombinant protein (human, UniProt P07333 20-517).
T5 construct: also called human CSF1R-Fc
Nature of the test: direct titration ELISA on coated human CSF1R-Fc, IgG4(S228P) format, OD 450 nm. On the procedure:
as §3
Background: In an ELISA, binding on a coated surface is turned into a signal by an enzyme label.

The target of test [6] is T1, monomeric human CSF1R ectodomain protein. The experiment in a line: AlphaScreen competition with mu0301 IgG4(S228P) for biotinylated monomeric human CSF1R. On the procedure: The AlphaScreen assay (Perkin Elmer) was performed in a 25 μl final volume in 384-well white microtiter plates (Greiner). The reaction buffer contained 1×PBS pH 7.3 (Oxoid, Cat. nr. BR0014G) and 0.05% (v/v) Tween® 20 (Sigma, Cat. nr. P9416). Purified IgG samples were titrated in three fold serial dilutions starting at 500 nM final concentration and incubated with biotinylated human CSF1R for 20 minutes at room temperature. […] The emission of light was measured in the EnVision multilabel plate reader (Perkin Elmer) and analysed using the EnVision manager software. Values were reported as Counts Per Second (CPS) and corrected for crosstalk. The EC50 values were calculated using the […] in GraphPad Prism software (GraphPad Software, La Jolla, Calif.).
A general note: Bead proximity is the source of the signal in Alpha formats.

For test [7] the target is unchanged. The experiment in a line: SPR Biacore, IgG captured, monomeric CSF1R analyte. On the procedure: as §1
The source holds these as a separate data set.

Test [8] has as its target T2, monomeric cynomolgus monkey CSF1R …. Nature of the test: SPR Biacore, IgG captured, monomeric CSF1R analyte. On the procedure: as §1
The target in test [9] is T3, human CSF1R, membrane-presented on cells. Nature of the test: flow cytometry on HEK-293 cells expressing human CSF1R, MFI. The source holds these as a separate data set.
In test [10] the target is T6, human insulin (human, UniProt P01308 25-54; P01308 90-110, limits assumed).
T6 construct: Coated antigen of the polyreactivity ('PK-risk indicator') ELISA
T6 sequence (P01308 25-54 limits assumed, chain 1 of 2): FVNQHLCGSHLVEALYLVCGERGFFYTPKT
T6 sequence (P01308 90-110 limits assumed, chain 2 of 2): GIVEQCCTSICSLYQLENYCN
The experiment in a line: ELISA on human insulin (development risk, polyreactivity), binding score.

For test [11], the target named is T2, monomeric cynomolgus monkey CSF1R …. The experiment in a line: SPR Biacore; KD on monomeric cyno CSF1R against KD of the same clone on monomeric human CSF1R as reference. On the procedure: as §1
The target of test [12] is T4, cynomolgus monkey CSF1R human Fc tagged …. Nature of the test: direct titration ELISA on coated cyno CSF1R-Fc, IgG4(S228P) format, OD 450 nm. On the procedure: as §3
Test [13] has as its target T5, human CSF1R human Fc tagged recombinant …. The experiment in a line: direct titration ELISA on coated human CSF1R-Fc, IgG4(S228P) format, OD 450 nm. On the procedure:
as §3
The source holds these as a separate data set.

B1: 26B07 (antibody, human IgG4, V domains shown)
VH: QVQLVQSGAEVKKPGSSVKVSCKASGYTFSSYYMIWVRQAPGQGLEWMGDINPYNGGANYAQKFQGRVTITADESTSTAYMELSSLRSEDTAVYYCAREGPYFSNLYVMDYWGQGTLVTVSS
VL: EIVLTQSPATLSLSPGERATLSCRASQSVEYQGDNYLNWYQQKPGQAPRLLIYAASNRATGIPARFSGSGSGTDFTLTISSLEPEDFAVYYCQLSNEDLLTFGGGTKVEIK
notes: Library-derived clone, tested as human IgG4(S228P)/Ckappa IgG; framework residue limits counted on the grafts
On to B1, for which the Kd came out at 0.29 nM in [1] and 0.85 nM in test [2]. Moreover, the koff in test [1] was determined as 0.00042 s⁻¹; in test [2], 0.00026 s⁻¹. The kon in test [1] turned out to be 1.5e+06 M⁻¹ s⁻¹; in test [2], 310000 M⁻¹ s⁻¹. The “EC50 (read off the curve)” value in [3] was approximately 1 nM; in test [4] it was approximately 0.09 nM; in [5] it was approximately 0.08 nM. Further, in test [6], the IC50 was found to be 2.56 nM.

B2: MH13 (antibody, human IgG4, V domains shown)
VH: B1 VH with Y32N
VL: B1 VL with E30S, Q32E, D34E, L82P
notes: Deimmunized MH5 derivative, human IgG4(S228P)/Ckappa IgG
Regarding B2, in [7], the Kd amounted to 0.397 nM, the “fold of the affinity of hu0301” value was not above 2 fold, the koff amounted to 0.000673 s⁻¹ and the kon stood at 1.69e+06 M⁻¹ s⁻¹. In test [8], binding was characterised by a dissociation constant (Kd) of 0.723 nM, the “fold of the affinity of hu0301” value was not above 2 fold, the koff was 0.000598 s⁻¹ and the kon worked out at 827000 M⁻¹ s⁻¹. Further, the “EC50 (read off the curve)” value in [9] was approximately 1 nM. The binding result in [10] is on record as “no binding”.

B3: MH33 (antibody, human IgG4, V domains shown)
VH: B1 VH with Y32A, Q114R
VL: B1 VL with E30S, Q32E, D34E, L82P
notes: as for B2
In test [7], B3 came in with a Kd of 1.09 nM, a koff of 0.00144 s⁻¹ and a kon of 1.32e+06 M⁻¹ s⁻¹. In [8], this molecule returned a Kd of 1.74 nM, a koff of 0.00115 s⁻¹ and an on-rate constant (kon) of 660000 M⁻¹ s⁻¹. Besides, the “EC50 (read off the curve)” value in [9] is approximately 0.7 nM. Besides, the binding result in test [10] is reported as “no binding”.

B4: 29H09 (antibody, human IgG4, V domains shown)
VH: B1 VH with S30T
VL: B1 VL with E30S, Q32E, D34E
notes: as for B1
In test [1], B4 had a Kd of 0.19 nM, an off-rate (koff) of 0.00034 s⁻¹ and a kon of 1.8e+06 M⁻¹ s⁻¹. In test [2], this molecule displayed a Kd of 0.42 nM, a koff of 0.00023 s⁻¹ and a kon of 550000 M⁻¹ s⁻¹. The molecule further had an IC50 in test [6] of 2.16 nM. This molecule also gave a human/cyno affinity differential in test [11] of less than 3 fold.

B5: 29D10 (antibody, human IgG4, V domains shown)
VH: B1 VH with S30T, Y60F
VL: B1 VL with E30S, Q32E, D34E
notes: as for B1
In test [1], B5 showed a dissociation constant (Kd) of 0.2 nM, a koff of 0.00037 s⁻¹ and a kon of 1.9e+06 M⁻¹ s⁻¹. In [2], this molecule registered a Kd of 0.42 nM, a koff of 0.00022 s⁻¹ and an on-rate (kon) of 520000 M⁻¹ s⁻¹. Further, the IC50 in [6] worked out at 1.93 nM. The human/cyno affinity differential in test [11] is less than 3 fold.

B6: 30E06 (antibody, human IgG4, V domains shown)
VH: B1 VH with S30T, A58T, N59T
VL: B1 VL with E30S, Q32E, D34E, N38A, R58L
notes: Library-derived clone; tested as human IgG4(S228P) / human Ckappa IgG; also called 30E6; mAb-3
In [1], B6 gave a Kd of 0.11 nM, an off-rate (koff) of 0.00019 s⁻¹ and a kon of 1.9e+06 M⁻¹ s⁻¹. Also, in [2], the Kd is 0.25 nM, the koff was found to be 0.00014 s⁻¹ and the kon is 570000 M⁻¹ s⁻¹. For the same molecule, the IC50 in [6] came out at 1.53 nM. The molecule further returned a human/cyno affinity differential in test [11] of less than 3 fold.

B7: murine anti-CSF1R antibody 0301 (mu0301), v-domains in human IgG4(S228P) format (antibody, V domains shown)
VH: EVQLQQSGPELVRPGASVKMSCKASGYTFTDNYMIWVKQSHGKSLEWIGDINPYNGGTTFNQKFKGKATLTVEKSSSTAYMQLNSLTSEDSAVYYCARESPYFSNLYVMDYWGQGTSVTVSS
VL: NIVLTQSPASLAVSLGQRATISCKASQSVDYDGDNYMNWYQQKPGQPPKLLIYAASNLESGIPARFSGSGSGTDFTLNIHPVEEEDAATYYCHLSNEDLSTFGGGTKLEIK
For the molecule B7, the dissociation constant (Kd) in test [1] was found to be 0.024 nM; in test [2], 0.1 nM; in test [7] it was 0.024 nM; in [8] it was 0.1 nM. Besides, the koff in [1] came to 6.9e-05 s⁻¹; in test [2], 7.4e-05 s⁻¹; in test [7] it was 6.9e-05 s⁻¹; in [8], 7.4e-05 s⁻¹. Further, the kon in test [1] turned out to be 2.9e+06 M⁻¹ s⁻¹; in test [2], 740000 M⁻¹ s⁻¹; in [7], 2.9e+06 M⁻¹ s⁻¹; in [8], 740000 M⁻¹ s⁻¹. In addition, the “EC50 (read off the curve)” value was approximately 1 nM in test [9], approximately 0.2 nM in [12], approximately 0.1 nM in test [5] and approximately 0.1 nM in [13]. The binding result in [10] is listed as “no binding”. Moreover, the IC50 in [6] was determined as 1.29 nM.
